According to patent publication US20110151450:
Changes are numbered by the printed parent chain.

Assays:
Test in all cases: cleavage_in_vitro
NruI-WT (Nocardia rubra) = tested on: T1, NruI-WT (Nocardia rubra); conditions: NEB4, relative activity 12.5%
T1 sequence: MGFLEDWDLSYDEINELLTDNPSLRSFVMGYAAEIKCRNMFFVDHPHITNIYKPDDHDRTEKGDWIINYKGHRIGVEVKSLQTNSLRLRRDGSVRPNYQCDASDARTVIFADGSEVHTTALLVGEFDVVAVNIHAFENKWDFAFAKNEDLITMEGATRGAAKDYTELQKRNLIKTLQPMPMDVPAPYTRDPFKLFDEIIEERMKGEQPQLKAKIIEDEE

[1] = tested on: BanII-HF R126A (Bacillus aneurinolyticus); conditions: NEB4, relative activity 50%
[2] = biological target: T2, BanII-WT (Bacillus aneurinolyticus) (UniProt P19887); conditions: NEB4, relative activity 100%
T2 sequence: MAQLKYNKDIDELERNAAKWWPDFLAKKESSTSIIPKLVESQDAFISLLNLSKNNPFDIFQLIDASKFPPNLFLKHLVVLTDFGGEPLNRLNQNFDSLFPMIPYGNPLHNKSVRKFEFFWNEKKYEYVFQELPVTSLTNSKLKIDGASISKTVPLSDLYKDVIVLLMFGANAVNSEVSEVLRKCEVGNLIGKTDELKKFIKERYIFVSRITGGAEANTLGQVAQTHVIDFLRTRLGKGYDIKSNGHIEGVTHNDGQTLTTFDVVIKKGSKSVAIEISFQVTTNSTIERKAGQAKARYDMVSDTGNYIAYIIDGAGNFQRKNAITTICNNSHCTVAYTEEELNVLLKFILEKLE

[3] = tested on: T3, BclI-HF Y192F (Bacillus caldolyticus); conditions: NEB4, relative activity 100%
T3 sequence: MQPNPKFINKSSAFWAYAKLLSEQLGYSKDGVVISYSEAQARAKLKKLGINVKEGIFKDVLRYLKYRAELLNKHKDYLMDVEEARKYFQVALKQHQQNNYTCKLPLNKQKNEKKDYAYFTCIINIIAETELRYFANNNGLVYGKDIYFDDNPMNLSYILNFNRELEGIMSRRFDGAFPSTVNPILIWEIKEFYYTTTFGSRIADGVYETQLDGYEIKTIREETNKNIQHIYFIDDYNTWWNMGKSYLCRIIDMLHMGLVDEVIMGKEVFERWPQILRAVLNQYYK

[4] = biological target: T4, DpnII-WT (Diplococcus pneumoniae) (UniProt P09357); conditions: NEB4, relative activity 25%
T4 sequence: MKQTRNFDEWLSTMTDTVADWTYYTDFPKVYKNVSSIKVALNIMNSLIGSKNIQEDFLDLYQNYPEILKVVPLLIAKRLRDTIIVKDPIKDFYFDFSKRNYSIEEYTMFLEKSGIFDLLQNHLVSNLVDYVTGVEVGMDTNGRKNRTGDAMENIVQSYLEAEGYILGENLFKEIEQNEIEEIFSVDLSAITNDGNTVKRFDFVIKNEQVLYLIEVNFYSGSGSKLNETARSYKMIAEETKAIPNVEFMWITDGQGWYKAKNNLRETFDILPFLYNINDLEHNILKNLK

[5] = tested on: T5, BclI-WT (Bacillus caldolyticus); conditions: NEB4, relative activity 100%
T5 sequence: T3 sequence with F192Y

[6] = biological target: T6, DpnII-HF R199A (Diplococcus pneumoniae) (UniProt P09357); conditions: NEB4, relative activity 100%
T6 sequence: T4 sequence with R199A

[7] = tested on: T7, NruI-HF P22A/R90A (Nocardia rubra); conditions: NEB4, relative activity 100%
T7 sequence: T1 sequence with P22A, R90A

[8] = biological target: T8, BglI-WT (Bacillus globigii) (UniProt O68557); conditions: NEB4, relative activity 50%
T8 sequence: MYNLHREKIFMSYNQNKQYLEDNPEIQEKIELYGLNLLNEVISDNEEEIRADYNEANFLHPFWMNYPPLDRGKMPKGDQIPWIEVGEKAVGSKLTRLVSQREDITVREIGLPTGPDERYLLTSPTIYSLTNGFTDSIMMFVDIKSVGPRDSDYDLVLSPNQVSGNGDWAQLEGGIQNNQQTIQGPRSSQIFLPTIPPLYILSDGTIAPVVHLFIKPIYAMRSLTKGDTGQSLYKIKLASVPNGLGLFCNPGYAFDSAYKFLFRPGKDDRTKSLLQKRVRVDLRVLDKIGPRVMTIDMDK

[9] = biological target: T9, BglI-HF K225A (Bacillus globigii) (UniProt O68557); conditions: NEB4, relative activity 100%
T9 sequence: T8 sequence with K225A

[10] = tested on: T10, BstEII-WT (Bacillus stearothermophilus); conditions: NEB4, relative activity 100%
T10 sequence: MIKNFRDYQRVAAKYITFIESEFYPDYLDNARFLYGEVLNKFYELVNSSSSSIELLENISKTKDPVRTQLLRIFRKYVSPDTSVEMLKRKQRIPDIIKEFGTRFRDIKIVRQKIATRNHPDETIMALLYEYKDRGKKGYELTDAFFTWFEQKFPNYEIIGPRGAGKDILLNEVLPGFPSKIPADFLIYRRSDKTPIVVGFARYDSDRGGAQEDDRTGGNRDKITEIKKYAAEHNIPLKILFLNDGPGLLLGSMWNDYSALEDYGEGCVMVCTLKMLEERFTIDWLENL

[11] = biological target: T11, BanI-WT (Bacillus aneurinolyticus) (UniProt P19887); conditions: NEB4, relative activity 100%
T11 sequence: T2 sequence

[12] = tested on: T12, MluI-WT (Micrococcus luteus); conditions: NEB4, relative activity 25%
T12 sequence: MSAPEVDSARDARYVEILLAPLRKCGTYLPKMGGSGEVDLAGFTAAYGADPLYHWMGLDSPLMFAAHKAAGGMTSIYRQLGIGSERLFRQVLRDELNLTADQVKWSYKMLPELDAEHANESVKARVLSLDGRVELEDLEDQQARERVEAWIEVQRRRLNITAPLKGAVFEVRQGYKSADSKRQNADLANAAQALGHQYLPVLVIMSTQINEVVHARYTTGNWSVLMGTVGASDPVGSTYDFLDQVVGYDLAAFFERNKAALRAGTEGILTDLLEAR

[13] = biological target: T13, BanI-HF Q292A (Bacillus aneurinolyticus) (UniProt P19887); conditions: NEB4, relative activity 100%
T13 sequence: T2 sequence with Q292A

[14] = tested on: T14, MluI-HF E112A/R132A (Micrococcus luteus); conditions: NEB4, relative activity 100%
T14 sequence: T12 sequence with E112A, R132A

[15] = tested on: T15, BstEII-HF R105A (Bacillus stearothermophilus); conditions: NEB4, relative activity 100%
T15 sequence: T10 sequence with R105A

NspI-WT (Nostoc species) = tested on: T16, NspI-WT (Nostoc species); conditions: NEB4, BSA, relative activity 50%
T16 sequence: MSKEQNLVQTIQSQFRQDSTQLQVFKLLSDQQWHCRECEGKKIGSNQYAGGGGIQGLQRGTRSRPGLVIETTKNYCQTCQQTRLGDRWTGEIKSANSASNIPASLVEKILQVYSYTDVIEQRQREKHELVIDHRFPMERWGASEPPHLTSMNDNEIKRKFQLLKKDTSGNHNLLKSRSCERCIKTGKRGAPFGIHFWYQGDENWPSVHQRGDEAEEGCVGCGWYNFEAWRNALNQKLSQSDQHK

[16] = tested on: T17, NspI-HF S97A (Nostoc species); conditions: NEB4, BSA, relative activity 100%
T17 sequence: T16 sequence with S97A

dam- lambda DNA
activity (fidelity index) (NruI-WT (Nocardia rubra)): 32 | activity (fidelity index) [1]: > 2000 | activity (fidelity index) [2]: 16 | activity (fidelity index) [3]: > 2000 | activity (fidelity index) [4]: 1 | activity (fidelity index) [5]: 32 | activity (fidelity index) [6]: 8000 | activity (fidelity index) [7]: > 16000

lambda DNA
activity (fidelity index) [8]: 32 | activity (fidelity index) [9]: > 8000 | activity (fidelity index) [10]: 4 | activity (fidelity index) [11]: 16 | activity (fidelity index) [12]: 32 | activity (fidelity index) [13]: > 2000 | activity (fidelity index) [14]: > 32000 | activity (fidelity index) [15]: > 2000

pUC19 plasmid
activity (fidelity index) (NspI-WT (Nostoc species)): 32 | activity (fidelity index) [16]: 500
